The text below walks through data of IntAct's records for PubMed 30073165.

B1: Cannabinoid receptor 1 (Homo sapiens), P21554 (parent)
chain: MKSILDGLADTTFRTITTDLLYVGSNDIQYEDIKGDMASKLGYFPQKFPLTSFRGSPFQEKMTAGDNPQLVPADQVNITEFYNKSLSSFKENEENIQCGENFMDIECFMVLNPSQQLAIAVLSLTLGTFTVLENLLVLCVILHSRSLRCRPSYHFIGSLAVADLLGSVIFVYSFIDFHVFHRKDSRNVFLFKLGGVTASFTASVGSLFLTAIDRYISIHRPLAYKRIVTRPKAVVAFCLMWTIAIVIAVLPLLGWNCEKLQSVCSDIFPHIDETYLMFWIGVTSVLLLFIVYAYMYILWKAHSHAVRMIQRGTQKSIIIHTSEDGKVQVTRPDQARMDIRLAKTLVLILVVLIICWGPLLAIMVYDVFGKMNKLIKTVFAFCSMLCLLNSTVNPIIYALRSKDLRHAFRSMFPSCEGTAQPLDNSMGDSDCLHKHANNAASVHRAAESCIKSTVKIAKVTMSVSTDTSAEAL
partner: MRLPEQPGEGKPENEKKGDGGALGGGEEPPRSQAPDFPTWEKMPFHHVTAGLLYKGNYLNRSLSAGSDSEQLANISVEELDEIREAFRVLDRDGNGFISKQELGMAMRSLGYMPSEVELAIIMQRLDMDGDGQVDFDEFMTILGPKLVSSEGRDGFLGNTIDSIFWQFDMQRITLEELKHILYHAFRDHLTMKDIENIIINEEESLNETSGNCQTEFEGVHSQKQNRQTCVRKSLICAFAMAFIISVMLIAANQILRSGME

The variants in the experiment derive from B1. The following applies: with cabp8_human CALN1, Q9BXU9.
Take T321A;S322A: the “effect of a mutation on the interaction” value is given as “disrupting interaction strength”.
